What was measured:
Test in all cases: SPR
[1] = biological target: Ab62-D100dG (human)
[2] = biological target: Ab62-S74P (human)
[3] = biological target: Ab77 with a T28I mutation (human)
[4] = biological target: Other beneficial substitutions in Ab77 and Ab31

fold improvement of affinity over the parent Ab62 [1]: 3 fold | fold improvement of affinity over the parent Ab62 [2]: 3 fold | fold improvement of affinity over the parent Ab77 [3]: 3 fold | fold improvement of affinity over the parent antibody [4]: < 2 fold
B1: Recombinant dimeric HARS (aa1-506) (enzyme)
chain: MAERAALEELVKLQGERVRGLKQQKASAELIEEEVAKLLKLKAQLGPDESKQKFVLKTPKGTRDYSPRQMAVREKVFDVIIRCFKRHGAEVIDTPVFELKETLMGKYGEDSKLIYDLKDQGGELLSLRYDLTVPFARYLAMNKLTNIKRYHIAKVYRRDNPAMTRGRYREFYQCDFDIAGNFDPMIPDAECLKIMCEILSSLQIGDFLVKVNDRRILDGMFAICGVSDSKFRTICSSVDKLDKVSWEEVKNEMVGEKGLAPEVADRIGDYVQQHGGVSLVEQLLQDPKLSQNKQALEGLGDLKLLFEYLTLFGIDDKISFDLSLARGLDYYTGVIYEAVLLQTPAQAGEEPLGVGSVAAGGRYDGLVGMFDPKGRKVPCVGLSIGVERIFSIVEQRLEALEEKIRTTETQVLVASAQKKLLEERLKLVSELWDAGIKAELLYKKNPKLLNQLQYCEEAGIPLVAIIGEQELKDGVIKLRSVTSREEVDVRREDLVEEIKRRTGQPL

From article PMC7646482
